The values below come from US20240301071A1.

In assay [1] the target is SIRPB1-His iso. 3 (human) (UniProt Q5TFQ8). The experiment in a line: ELISA, plate coated with SIRP protein. Background: In an ELISA, binding on a coated surface is turned into a signal by an enzyme label.
Assay [2] deals with SIRPA v2 (CAA71403.1) (human) (UniProt P78324). Briefly: ELISA, plate coated with SIRP protein.
Assay [3] addresses SIRPB1-Fc iso. 3 (human) (UniProt Q5TFQ8). Briefly: ELISA, plate coated with SIRP protein.
Assay [4] addresses huSIPRA v.1 CAA71403.1 (human) (UniProt P78324). Briefly: ELISA, plate coated with tagged SIRPA at 1 ug/mL.
Assay [5] deals with T1, human SIRPA on human macrophages (primary monocyte-derived macrophages; U937 line) (human), P78324.
For assay [6], the target named is T1, human SIRPA on human macrophages …. Briefly: cell-based or functional assay.
For assay [7], the target named is human SIRPA on human macrophages (primary monocyte-derived macrophages; U937 line) (human) (UniProt P78324). The experiment in a line: cell-based or functional assay.
Chain of human SIRPA on human macrophages (primary monocyte-derived macrophages; U937 line) (human) (P78324 31-504): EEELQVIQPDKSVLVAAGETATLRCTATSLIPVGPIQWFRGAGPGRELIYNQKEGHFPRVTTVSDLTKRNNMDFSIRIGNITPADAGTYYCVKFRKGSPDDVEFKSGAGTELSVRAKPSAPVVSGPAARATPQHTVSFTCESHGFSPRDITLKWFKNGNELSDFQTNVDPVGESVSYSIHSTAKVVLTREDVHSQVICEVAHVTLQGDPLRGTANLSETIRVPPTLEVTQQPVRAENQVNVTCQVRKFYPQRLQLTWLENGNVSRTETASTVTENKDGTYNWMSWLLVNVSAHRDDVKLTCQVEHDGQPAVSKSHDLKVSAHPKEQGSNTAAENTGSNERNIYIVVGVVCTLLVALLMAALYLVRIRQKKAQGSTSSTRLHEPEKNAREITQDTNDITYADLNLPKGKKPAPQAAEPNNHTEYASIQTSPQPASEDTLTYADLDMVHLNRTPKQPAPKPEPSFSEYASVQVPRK

T1 sequence (P78324 31-504): as above
Chain of SIRPB1-His iso. 3 (human) (Q5TFQ8 30-371): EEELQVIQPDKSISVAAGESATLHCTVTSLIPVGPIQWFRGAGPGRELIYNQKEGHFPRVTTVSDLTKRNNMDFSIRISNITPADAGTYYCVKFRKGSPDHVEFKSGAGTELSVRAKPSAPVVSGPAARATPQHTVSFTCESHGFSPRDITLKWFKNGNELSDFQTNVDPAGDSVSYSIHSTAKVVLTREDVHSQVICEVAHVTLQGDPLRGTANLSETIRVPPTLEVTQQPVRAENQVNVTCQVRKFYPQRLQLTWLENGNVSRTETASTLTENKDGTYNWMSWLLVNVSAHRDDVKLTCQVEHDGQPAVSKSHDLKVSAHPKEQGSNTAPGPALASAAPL
Chain of SIRPB1-Fc iso. 3 (human) (Q5TFQ8 30-371): as above

B1: mouse anti-SIRPA antibody m3F9 (antibody, mouse IgG1, V domains shown)
VH: EVKLVESGGGLVKPGGSLKLSCAASGFTFSSYAMSWVRQTPEKRLEWVATISDYGGSYTYYPDSVKGRFTISRDNAKYTLYLQMSSLRSEDTALYYCARPPYDDYYGGFAYWGQGTLVTVSA
VL: DIVLTQSPASLAVSLGQRATISCRASKSVSSSGYSYMHWYQQKPGQPPKLLIYLASNLESGVPARFSGSGSGTDFTLNIHPVEEEDAATYYCQHNRELPCTFGGGTKLEIK
B1 came in with an EC50 in assay [1] of 0.435 nM. In assay [2], this molecule showed an EC50 of 0.353 nM. For the same molecule, the EC50 in assay [3] was determined as 0.319 nM. The same molecule showed an EC50 in assay [4] of 0.789 nM. The IC50 (read off the curve), SIRPA downregulation on primary human macrophages, Dnr. 414 in assay [5] was found to be 0.04 nM. For the same molecule, in assay [6], the Phagocytosis, fold increase over baseline activity was determined as 1.51 fold; the SIRPA IC50 (nM), downregulation on U937 cells came to 0.105 nM; the SIRPA IC50 (nM), downregulation on human primary macrophages came to 0.00905 nM; the SIRPA Max % DR, U937 cells turned out to be 75%. Also, in assay [6], the SIRPA Max % DR, human primary macrophages came to 89%; the SIRPA downregulation on primary human macrophages, Donor 413 (flow cytometry) amounted to 90%; the SIRPA downregulation on primary human macrophages, Donor 414 (flow cytometry) stood at 85%.

B2: chimeric anti-SIRPA antibody 3F9 huIgG1 (antibody, V domains shown)
VH: B1 VH
VL: B1 VL
For B2, in assay [6], the Phagocytosis, fold increase over baseline activity was determined as 1.77 fold; the SIRPA IC50 (nM), downregulation on U937 cells turned out to be 0.804 nM; the SIRPA IC50 (nM), downregulation on human primary macrophages was 0.172 nM; the SIRPA Max % DR, U937 cells came to 68%. In assay [6], this molecule displayed an SIRPA Max % DR, human primary macrophages of 90%.

B3: deglycosylated m3F9 anti-SIRPA antibody (antibody, mouse IgG1, V domains shown)
VH: B1 VH
VL: B1 VL
modifications: here or on the partner: Fc glycan on Asn297 removed enzymatically with EndoS
For the molecule B3, the IC50 (read off the curve), SIRPA downregulation on primary human macrophages, Dnr. 413 in assay [5] worked out at 0.07 nM. In assay [6], this molecule yielded an SIRPA downregulation on primary human macrophages, Donor 413 (flow cytometry) of 70% and an SIRPA downregulation on primary human macrophages, Donor 414 (flow cytometry) of 75%.

B4: anti-SIRPA antibody 9C2 (antibody, V domains shown)
VH: EFQLQQSGAELVKPGASVKISCKASGYSLTGYNMNWVKQSRGKSLEWIGNINPHYGSSTYNQNFKDKATLTVDKSSSAAYMQFNSLTSEDSAVYYCAREGYDGVFDYWGQGTTLTVSS
VL: QIVLSQSPAILSASPGEKVTMTCRASSSVSYMHWYQQKPGSSPKPWIYVTSNLASGVPTRFSGSGSGTSYSLTISRVEAEDAATYYCQQWSSNPRTFGGGTKLEIK
As to B4, the results for the EC50 in assay [1], in assay [2] and in assay [3] were 0.425 nM, 0.358 nM and 0.382 nM, respectively.

B5: anti-SIRPA antibody 18D5 (antibody, from another filing, V domains shown)
VH: QVQLQQPGAELVRPGSSVKLSCKASGYTFTSYWVHWVKQRPIQGLEWIGNIDPSDSDTHYNQKFKDKASLTVDKSSSTAYMQLSSLTFEDSAVYYCVRGGTGTMAWFAYWGQGTLVTVSA
VL: DVVMTQTPLSLPVSLGDQASISCRSSQSLVHSYGNTYLYWYLQKPGQSPKLLIYRVSNRFSGVPDRFSGSGSGTDFTLKISRVEAEDLGVYFCFQGTHVPYTFGSGTKLEIKR
In assay [7], B5 returned an EC50 (nM), phagocytosis of A375 cells by primary human macrophages of 2.15 nM and a Max, fold increase in phagocytosis over baseline activity of 1.06 fold.

The EC50 is the concentration that produces a half-maximal response. A high value points to a need for much substance.
